Experimental data reported in the DeepSol protein solubility set.

Test: soluble on expression in E. coli; label from the status in PepcDB or PDB records

| Sequence | soluble on expression in E. coli |
| --- | --- |
| MTTYPADTPIITQPPSPDSPSSSNGSSTSLSENLNNNSVSNQIEYVNQNNNSDNFTVGLGFLGASGNYGNYSSHLNNNLSISQNQSVSLNSSSSSVGAGLTPGNGSVGSTSNSSSAASSIQNIGLNSSLINSNTNNLSSSSHSMSGSNNNNSNNNVVNNYLTVYGNNGSSGGGSGSGGGSGPGADSPRIHCCRPCCPYSHHRRLCDPCYCSNRPESHRDSSSSEEVNDAQSDENTYFQFDFIGVDGHHARRVLPPSWRILRNSKAESSDESSLSDAVQTVDLPKIPQKKIRCVYSIDAEEIEGKKCMLECIRSSCLPRYVECHRRRRCSRKQRCHTTTQPPSPTTESLPTSTTTYEMNTTSLETSTTDISTITSTEEPISTTVKTHEQSSTSGMEFSTMSTTYEPITTTLETSTTDISIITSTEEPDTSTTTESNEQSSTTGMEFSTMSTTYEPITTSLETSTTDMLTNTSTEEPDISTTIEPNAQSTTYEMESSTVSVTYEPETTSLETSSTKVSSTTATGEPASTTMEANEHSSTFETESSTVPATNEPITTSFIPSTTDLSIITSTEEAKISTTMETDELSTTTESSYSTTQFTTFKIPTSSFSTLPMEGTSTKEQTTLSTEETSSATTATIFEKLSTTLFFEETQVTSTSDFTSSPRSIETTRVIEFDTSTELQTTSKTSTTTEDTTTVGTTTEMEMRRFWRLFG | not soluble |
| MSLDIRRANSADLNALNALEQQLFDGDRISPRQMKRFLHSDHAALFVADAGDQLAGYALLLFHQGTQLSRLYSIAVKPEFRGQRIAQSLVEQCERAALDQGSTTLRLEVREDNTAALKLYEKMGYKTLKLLIHYYDDLCDGRRMQKRLTPQESKVLLPMPLYVQTTPFTCGAACLLMSFACLDKTFEPSRTQEMQLWREATTIFMAAGHGGCSGQGLALAAARRGYHVELWNQSRSTPFIDSVRDPNKKQIIELVHQDFCQQLAEQDVSMIDAPPSQAQLEEWVRKGACVLLLISTYRFDGKKEPHWIVLSGLSDKFFFFHDPHAESEEHVSGSGYIPVGKAALSQIIGFGKQKQIACVVITPRLEGHHHHHH | soluble |
| MKFKYLSTPLLFSALLFSACSSVNVGANLKSLIKETTDQDLDLSESVSTSEGKKNLISSLKKSYETNPSKTASVLLNAWKQSVENGQIESSETNWTNWKFP | soluble |
| MKPKLILMSHGRMAEETLASTQMIVGELADAAIVSMTAEDGLSGTQAKLAAILKEAGNVPTLVLADLKGGTPCNVAMMAMGTYPQLRVVAGLNLAMAIEAAVSPVENVDELAAYLTQIGQSAVTTIDLPELTDEEEFEE | soluble |
| MGSDKIHHHHHHLTQPITDWYKSGTGSTPVLKFQFATEKLLRPSGGGPSRRGTPIREIPMNLHKLLSDREQDGRPIRVGLIGAGRYGTMYLAQANNIPGIHVVAIADINVKRAEGAFELVGWPKNQIAPDIATALRDRSTTIVANADELFDVDIDVIVEATGNPIVGVKHALRAIETKKHIIMVTVEADALAGPALARRAEAAGVVYSMAYGDQPALIMELVDWARTSGFDVVCAGKGAKFLEHYHEMNPDNVWENWEFSKELTDSGQLNPNMHTSFRDGTKASIEMAAVANGAGLVPSDTGLTFTPGDVEEIATICRPADAGGVLAHEGTVDVMSSVKRDGTWIPHNTQEGVFVVVKATNAYVSGCFTEYPWHPDPTGQYAALYRPYHYVGLELNMSIANAALRGISTGSPIGFFGDVVATAKKNLKAGEFLDGEGGYTVWGQLVSAKHSVATGALPVALAHHVELRNDVAKGGIVGWDDVIMDDSLSQALEVRRETEALVAEFALNA | not soluble |
| MHRLKYLTGYPPQLTAQVAHLVTENRLGEVLVQRYPTVHDVRTDRALYDFTVAVKNEFMRTAQPLSRVLYDGKIHAIKNALGTHTFVSRVQGGKLKAKHEIRIASIFREAPLEFLKMIVVHELAHLKEKEHNKAFYQLCEYMEPRYHQLEFDTRLFLTQVEIAGSPYLPLEHHHHHH | soluble |
| GPGSMEFVAEAHGYLITGLALDSQGDLFAICSCSGELLRLNKEENTLVSIMATEASPYNIAIEPNSGSVFITDRSENAILKLEDAATVRAEQELREGKDQESQAAYTTVQYLNAFEGRSFLGPTAIAFSPSGELFFTDAGAEGDSSFSDPVGAVYRTTMNHEHLVPICTRGLIRPSAIAVAPDNSVYVCEQGTNRVLRFVQRSTFYVGNVFAQLQGGMGPRAIAVSPRDGSVFVAQYDISAVEAPTEEGESEKGNEDAGEGEGGDDGKVQNQSALESAGEGGIITVLGRDGDVRGIVRTMRPCITAIALDASGETLYVMEGDEANGSSKLYKLQVLPLDDQQCGGQAE | not soluble |
| AIAVIVSRCGTGGSVTEHANEVVMKLEALQRPGGLPLSILLVLAGLTKRGASDLRHPIAEDRQSLSCATVQPSLQDV | soluble |
| MAFAKDLKRRNVLQEAVYHRIKADFDLGAQAAVRTVKKVCDAYATFKANLRAGNYGLEGSKRRIKAESKPVRFRETSAQPFDDRMLTWNLDTKMVSVWTVAGRLKGIPFVCSPEAMRLLAQRKGESDLVMRDGMFFLLATIDIPEPEVSGPDGFLGVDLGIVNIATTSDGRIMSSRQVNRYRQRKRDLRGKLQKKRTKSAARVLKRQRRKEARYATQRNHIIARKLVHTAERTSRGIGLEDLTGIRQRVTAREDQRARLHSWAFAQLGAFVEYKAKRAGVAVVHVDPRNTSRQCSECWHTHRTNRVTRARFVCRSCGIVLHADHNGSRNIAHRADAAWQRGAANRPRTPAAALEHHHHHH | not soluble |
| MAKRVFIGATGQNCGKTTMSVSLMHLARQKYDRVGFIKPIGPKIEGYNGLTVDMDAILMARTFGLEEDLPLMNPVSLHKNFTRDFLSGKLDCNVLKTKILEAFEILDKKYDFLIIEGAGHGGVGSVIGLSNACVAHTLNAPVIIVTDSGIGSSIDAVHLNLALYEKEDADVRMLLVNKLRADKRESILSFLGKGFPGRPLKISGGFNYSPILANPTLSHIGKLLNLPVHGDPDGQSRIIHHIHLGAASAQRVVDALQESTLIVITSSRDELIVTLSSLYHIPAFREKIVGLVIAGHIPASEISQQILDDSNIPYIRVHDSTANVFTTLMEDVAKITAEDQEKLNWIRANAENEIDFEAIDALLLEHHHHHH | not soluble |
| MGSDKIHHHHHHMIDVENILEKMKPNQKINYDWVMQQMVKQWQASDIRPKILMHVCCAPCSTYTLEYLSQWADVTIYFANSNIHPKDEYYRREYVTQKFVHDFNKNTGYSVQFLSAPYEPNEFFKIVHGLEEEPEGGDRCKVCYDFRLDKTAEKAVELGFDYFGSALTISPHKNSQTINTIGIDVQKIYDTQYLPSDLKKNKGYQRSVEMCKDYDIYRQCYCGCIFGAKDQGINLLQIKKDAKAFVSDKDGKEEFPNIRFTFNGKSM | not soluble |
| MPEITLNCQKLPCPQPVLRCKALLDTEAPARCTVTVDNAPASENVARFLTSRGYDTSVHADPEGLWNIIAVRKDSAVAPSCDCEVMDARGIAAIAGTAEMPQKVTVFITSETLGSGDDVLGGKLMANFLATLPELGDELWRIVCVNGGVRLATREHPAVTHLNKLEAMGVDILVCGTCLDHFGLLSEKAVGQTTNMLDVVTSLQLATKVIRPLEHHHHHH | soluble |
| MGSDKIHHHHHHMNFNSDLLNLNSKSPAFSITIEGKDVTTVMDARLMSLTLTDNRGFEADQLDLELDDADGQIVLPRRGAVIHLALGWKGQPLFPKGAFTVDEIEHSGAPDRLTIRARSADFRETLNTRREKSWHQTTVGEVVKEIAARHNLKVALGQDLTDKALDHMDQTNESDASFLMKLARQYGAIASVKDGNLLFIRQGQGRTASGKPLPVITITRKAGDGHRFTLADRGAYTGVIASWLHTREPRKKETTSVKRRRKKATTPKEPEAKQGDYLVGTDENVLVLNRTYANRSNAERAAKMQWERLQRGVASFSLQLAEGRADLYTEMPVKVTGFKQPIDDAEWTITTLTHSVSPDNGFTTSMELEVKIDDLEIE | not soluble |
| MGSDKIHHHHHHMSADTLFPKLDIPATIAAGPGPGNTDARVLAAFSGAGLADHMHGDVLRGMVECKLMLRRIWGTDNIHTFGVAGTGWSGLDVMFSAVMPGDKVVVFTNGTFSGIDGLTVRMKAATAEELAANPLDPRPASVVIVDIPHGQSVTGEIVETALAEHKPKWAAMAHWETGSGRINDIAGFSAACERHDVMGLVDAVSSLGVEDFRIDDFPGVHGWASCPQKGICCLPLTYAPVSFTDRYIQTLRATGTRSFVHHPILEARHWGVIEGKDVDKGTYHRTHSAYAVAAFHEALRITLQQGVANRAKDYAYHEAALRRAVEALGCEVTSNMTSLVVLNLPGDLRGREMELVQNCRARNFGIWPTLSAPVQVRIGILNLLSRAAVTDIVTRFAEAIRELGGAGDEATALAALDAHYDNAIAAE | not soluble |
| MVSLRTSNRGIVMIDAVVTWVDGADPAHHAKRLRHQGEAGVHQAATAPTRFAHSGEIRFCVLSLLRFCPFVERIHIVTDDQHPAVLDPILDDPHWRDRIAVVDHRAIYGEHADLLPVFSSRSIETMIHRIPGLAPRFIYLNDDIFVGRPLDESHFFDGDRAVLRGRMQPFPNPLVTRLKRWLKRERPGYKTAQQAAARLTGRTSDYFLTEHQPHPMHRDRLASFYAGDPQALRRQAGHRFRSADQVSPIGLANHLEIEARAVIAPPLDVGYIRPGRPTGTALARTMERLCANGYASFCVQSLDAMSEADRRCVLEGLERHYALEHHHHHH | soluble |
| MGSDKIHHHHHHMKVTVTTLELKDKITIASKALAKKSVKPILAGFLFEVKDGNFYICATDLETGVKATVNAAEISGEARFVVPGDVIQKMVKVLPDEITELSLEGDALVISSGSTVFRITTMPADEFPEITPAESGITFEVDTSLLEEMVEKVIFAAAKDEFMRNLNGVFWELHKNLLRLVASDGFRLALAEEQIENEEEASFLLSLKSMKEVQNVLDNTTEPTITVRYDGRRVSLSTNDVETVMRVVDAEFPDYKRVIPETFKTKVVVSRKELRESLKRVMVIASKGSESVKFEIEENVMRLVSKSPDYGEVVDEVEVQKEGEDLVIAFNPKFIEDVLKHIETEEIEMNFVDSTSPCQINPLDISGYLYIVMPIRLA | soluble |
| MADVFEFELEGHESQASPQRHAYHYDNCTEIMEDDHMYSNVADGQISAPPPSSSYMEDPMMESIQLCASAINPPNVRVGPEDFQLLKVLGKGGYGKVFQVRKTTGSDNGQIFAMKVLQKATIVRNQKDTAHTKAERNILEAVKSPFICDLLYAFQTGGKLYLILEYLSGGELFMHLEREGMFMENVAKFYLSEIVVSLEHLHQQGIIYRDLKPENILLDAYGHVKLTDFGLCKEEIEGDQKTHTFCGTIEYMAPEILMRCGHGKAVDWWSLGALMFDMLTGGPPFTAENRRKTIDKILKGRLTLPAYLSNEARDLIKKLLKRHVDTRLGAGLSDAEEIKSHAFFKTTDWNLVYARQLEAPFKPNIENDEDTSLFDARFTKMTPVDSPCETNFSLNGDNPFVGFTYVAPSVLEMMNKGGHGGISVAHLASSMSRAGAAKSPRKPGDPETASILHGGHSNLFGHGPNSEAPQAFGYGIGSQMTTTTAGGAGIQQPYQSFSGGYPEDDAMDTSTPRASESRETTTGNGSTTTTRPSNVGSSASTPIPLPKRVIKLPHTHTSTQNAQYSFMLLLLNVSLFFHFF | not soluble |
| MKCRKCGEPSVYHQKHSGNKYCRTCFIKETKRKVRKTLGRDVLKNNIKVAMGLSGGKDSLVMAYLLNEFYKEIPNSKIIAIMVNEGIEGYRLDGIEAAVKFCEKHDIEYKIVQFKDYLGTNLDEIVKLAKEKNLTMNPCSFCGVIRRKILNRVSIEEKCDFLAIGHNLDDIAQAVMMNYIEGDVKKLAFLGKSLKHPKFVKRIKPLEKIPEDEVLLLADMLELTYHKSPCPYSCLSFRSEVSEITDTLEKNHPGTKYSIVRGYERLLEHIELPGYTGECKICGDLSATEVCKVCSYLKNLGILEKSKFEKI | not soluble |
| MIVIIDYDTGNTKSISKALDFIGLQNKISSDATEISQADGVILPGVGAYPEAMKELTRRGLNKTLKEIAAGGKPILGVCLGMQLLLESSNEHSFTNGLGLIPGHVEKLPEDPEFAVPHMGWNQLQIKRATPLTKQLDGEYVYYVHSYYANCPEEYIIATSGYSIEVPGMINKGNIYGAQFHPEKSGQIGLEILKGFKEVTYSCKSSQQ | not soluble |
